The values below come from paper PMC3792862, “Structure of UreG/UreF/UreH Complex Reveals How Urease Accessory Proteins Facilitate Maturation of Helicobacter pylori Urease” (PLoS Biology, 2013).

To fix the notation:
B2: UreF/UreH complex (complex)
chain 1: MDKGKSVKSTEKSVGMPPKTPKTDNNAHVDNEFLILQVNDAVFPIGSYTHSFGLETYIQQKKVTNKESALEYLKANLSSQFLYTEMLSLKLTYESALQQDLKKILGVEEVIMLSTSPMELRLANQKLGNRFIKTLQAMNELDMGEFFNAYAQKTKDPTHATSYGVFAASLGIELKKALRHYLYAQTSNMVINCVKSVPLSQNDGQKILLSLQSPFNQLIEKTLELDESHLCTASVQNDIKAMQHESLYSRLYMS
chain 2: MNTYAQESKLRLKTKIGADGRCVIEDNFFTPPFKLMAPFYPKDDLAEIMLLAVSPGMMRGDAQDVQLNIGPNCKLRITSQSFEKIHNTEDGFASRDMHIVVGENAFLDFAPFPLIPFENAHFKGNTTISLRSSSQLLYSEIIVAGRVARNELFKFNRLHTKISILQDEKPIYYDNTILDPKTTDLNNMCMFDGYTHYLNLVLVNCPIELSGVRECIEESEGVDGAVSETASSHLCVKALAKGSEPLLHLREKIARLVTQTTTQKV
notes: UreF, urease accessory protein of Helicobacter pylori; UreH, urease accessory protein of Helicobacter pylori (ortholog of UreD); also called (UreF/UreH)2; wild-type UreF/UreH complex; copies: 2 + 2
B3: UreF (natural protein)
chain: MDKGKSVKSTEKSVGMPPKTPKTDNNAHVDNEFLILQVNDAVFPIGSYTHSFGLETYIQQKKVTNKESALEYLKANLSSQFLYTEMLSLKLTYESALQQDLKKILGVEEVIMLSTSPMELRLANQKLGNRFIKTLQAMNELDMGEFFNAYAQKTKDPTHATSYGVFAASLGIELKKALRHYLYAQTSNMVINCVKSVPLSQNDGQKILLSLQSPFNQLIEKTLELDESHLCTASVQNDIKAMQHESLYSRLYMS
notes: UreF, urease accessory protein of Helicobacter pylori; The UreF chain of m6, for the rows of two chains that touch; also called UreF protomer; UreF chain A

In series [1] the target is B2. Put plainly: crystal structure; UreG/UreF/UreH complex with 5 mM GDP, 10 mM magnesium sulfate, 5 mM aluminum fluoride; 1.5 M ammonium sulfate, 100 mM sodium acetate pH 5.0, 16°C; GDP-bound state, 2.35 Å. The note with it: both partners purified.
Series [2] addresses B3. The description is as above. To be noted: both partners purified.
The target of series [3] is T1, HisGST-UreF/UreH complex (Helicobacter pylori, UniProt Q09065 1-254; Q09067 1-265).
T1 construct: UreF, urease accessory protein of Helicobacter pylori; UreH, urease accessory protein of Helicobacter pylori; also called wild-type HisGST-UreF (with UreH)
T1 sequence 1: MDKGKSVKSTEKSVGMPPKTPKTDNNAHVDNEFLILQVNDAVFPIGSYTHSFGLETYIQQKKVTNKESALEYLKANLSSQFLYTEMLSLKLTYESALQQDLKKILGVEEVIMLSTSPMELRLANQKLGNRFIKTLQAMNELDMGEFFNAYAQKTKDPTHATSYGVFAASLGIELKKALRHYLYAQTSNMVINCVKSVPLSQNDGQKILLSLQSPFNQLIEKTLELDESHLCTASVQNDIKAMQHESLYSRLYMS
T1 sequence 2: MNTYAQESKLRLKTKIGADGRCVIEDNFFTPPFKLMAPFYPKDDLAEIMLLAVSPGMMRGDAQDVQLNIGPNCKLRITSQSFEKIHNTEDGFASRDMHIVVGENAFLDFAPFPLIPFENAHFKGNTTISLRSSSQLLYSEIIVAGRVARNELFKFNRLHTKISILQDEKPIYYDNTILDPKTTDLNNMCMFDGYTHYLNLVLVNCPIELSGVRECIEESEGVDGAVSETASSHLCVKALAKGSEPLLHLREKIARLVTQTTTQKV
Put plainly: pull-down; purified GST-UreF/UreH and excess UreG on GST SpinTrap, 30 min at 4°C; immobilised complex incubated with 1 mM GTP and 2 mM magnesium sulfate, washed with buffer C, eluted with glutathione; SDS-PAGE of wash and eluate. The note with it: both partners purified.

Series [4] concerns the molecule itself. Put plainly: SEC-MALS; SEC/SLS; 40 µM UreG/UreF/UreH complex pre-incubated with 0.5 mM nickel and 1 mM GTP (2 mM magnesium sulfate); Superdex 200, phosphate-buffered saline; peaks analysed by SDS-PAGE.
Series [5] has as its target T2, UreH (Helicobacter pylori, UniProt Q09067 1-265).
T2 construct: UreH, urease accessory protein of Helicobacter pylori; The UreH chain of m6 to m9; also called UreH (ortholog of UreD)
T2 sequence: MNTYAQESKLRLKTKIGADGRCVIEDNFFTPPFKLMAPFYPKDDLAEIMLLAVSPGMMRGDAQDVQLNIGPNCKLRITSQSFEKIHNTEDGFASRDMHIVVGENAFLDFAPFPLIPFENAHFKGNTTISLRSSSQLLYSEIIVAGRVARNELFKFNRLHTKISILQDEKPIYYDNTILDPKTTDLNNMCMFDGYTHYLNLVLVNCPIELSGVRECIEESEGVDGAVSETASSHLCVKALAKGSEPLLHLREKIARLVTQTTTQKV
Description: crystal structure; UreG/UreF/UreH complex with 5 mM GDP, 10 mM magnesium sulfate, 5 mM aluminum fluoride; 1.5 M ammonium sulfate, 100 mM sodium acetate pH 5.0, 16°C; GDP-bound state, 2.35 Å. The note with it: both partners purified.

Series [6] deals with the molecule itself. The series is described as above.

B1: UreG (natural protein)
chain: MVKIGVCGPVGSGKTALIEALTRHMSKDYDMAVITNDIYTKEDAEFMCKNSVMPRERIIGVETGGCPHTAIREDASMNLEAVEEMHGRFPNLELLLIESGGDNLSATFNPELADFTIFVIDVAEGDKIPRKGGPGITRSDLLVINKIDLAPYVGADLKVMERDSKKMRGEKPFIFTNIRAKEGLDDVIAWIKRNALLED
notes: UreG, urease accessory protein (SIMIBI class GTPase) of Helicobacter pylori; Monomer in solution unless nickel and GTP (or free zinc) are present; two copies in the crystal of the UreG/UreF/UreH complex; also called apo-UreG; wild-type UreG; source: E. coli, purified (HisTrap, tag cleaved with SENP1C, second HisTrap, Superdex 75; dialysed with 5 mM EDTA)
In general, stoichiometry N refers to a count of units in the complex or per binding partner. Consider B1, for which the binding result in series [1], in series [2] and in series [3] was “binds” in each case. Besides, the “stoichiometry N” value in series [4] was determined as 2.

Consider B2, for which, in series [4], the “stoichiometry N” value is 2.

On to B3, for which the binding result in series [5] and in series [6] was “binds” each time.
